Data as given in patent US20230265151A1, “GIP/GLP1 CO-AGONIST COMPOUNDS” (priority 2020, published 2023).
*1 amine or outer side, *2 acyl side, *3 side chain or, on linkers, in order; H or OH if unused. Where no end group is shown, it is not given here. Side-chain parts run from the residue outwards. [ ]: non-standard residue; d: D form. The star is where a group is joined. Decanoyl(10-(4-HOOC-PhO)) = O=C(O)c1ccc(OCCCCCCCCCC(=O)*)cc1; αMePhe(2-F) = C[C@](N)(Cc1ccccc1F)C(=O)O; γGlu = O=C(O)[C@H](CCC(=O)[*:2])N[*:1]; C14 diacid = O=C(O)CCCCCCCCCCCCC(=O)*; αMeY = C[C@](N)(Cc1ccc(O)cc1)C(=O)O; αMeL = CC(C)C[C@](C)(N)C(=O)O; Orn = NCCC[C@H](N)C(=O)O; AEEA = NCCOCCOCC(=O)O; Aib = CC(C)(N)C(=O)O

T1: human GIP receptor (human) (UniProt P48546)
T1 sequence (looked up): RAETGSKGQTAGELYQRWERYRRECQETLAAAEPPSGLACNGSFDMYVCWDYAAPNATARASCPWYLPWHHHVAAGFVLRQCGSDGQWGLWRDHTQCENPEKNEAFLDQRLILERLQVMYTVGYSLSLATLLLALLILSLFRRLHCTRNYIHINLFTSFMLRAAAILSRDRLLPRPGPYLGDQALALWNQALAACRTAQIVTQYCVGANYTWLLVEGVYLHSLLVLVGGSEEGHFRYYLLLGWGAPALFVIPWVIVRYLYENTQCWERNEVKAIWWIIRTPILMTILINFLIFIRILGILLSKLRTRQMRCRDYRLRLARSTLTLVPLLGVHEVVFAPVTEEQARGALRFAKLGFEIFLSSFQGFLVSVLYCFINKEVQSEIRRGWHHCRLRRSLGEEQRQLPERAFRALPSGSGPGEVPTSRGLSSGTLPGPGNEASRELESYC

T2: human GIP receptor (human, UniProt P48546 22-466)
T2 sequence (looked up): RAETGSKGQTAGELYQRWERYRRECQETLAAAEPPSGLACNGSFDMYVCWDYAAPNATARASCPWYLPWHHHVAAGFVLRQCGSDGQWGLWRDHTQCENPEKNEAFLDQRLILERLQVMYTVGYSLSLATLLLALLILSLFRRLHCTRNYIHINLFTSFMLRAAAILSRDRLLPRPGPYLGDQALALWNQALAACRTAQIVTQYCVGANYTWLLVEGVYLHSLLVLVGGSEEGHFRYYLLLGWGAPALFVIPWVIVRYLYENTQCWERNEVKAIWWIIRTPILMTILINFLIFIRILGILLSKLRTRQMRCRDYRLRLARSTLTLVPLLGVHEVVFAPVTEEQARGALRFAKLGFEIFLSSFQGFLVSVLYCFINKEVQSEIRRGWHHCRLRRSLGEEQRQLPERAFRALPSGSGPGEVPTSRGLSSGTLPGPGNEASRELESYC


Tests used:
Experiment in all cases: cell-based or functional assay
hGLP-1R = hGLP-1R (Homo sapiens, UniProt P43220)
[1] = biological target: T1, human GIP receptor (human)
[2] = biological target: human glucagon receptor (human) (UniProt P47871)
human GIP receptor = biological target: T2, human GIP receptor
human GLP-1 receptor = human GLP-1 receptor (human, UniProt P43220 24-463)
human glucagon receptor = human glucagon receptor (human, UniProt P47871 26-477)

Row | Binder | cAMP EC50 (hGLP-1R) [nM] | cAMP Emax (hGLP-1R) [%] | cAMP EC50 [1] [nM] | cAMP Emax [1] [%] | cAMP EC50 [2] [nM] | cAMP EC50 (1.0% HSA) (human GIP receptor) [nM] | cAMP EC50 (1.0% HSA) (human GLP-1 receptor) [nM] | cAMP Emax (1.0% HSA) (human GLP-1 receptor) [%] | cAMP EC50 (1.0% HSA) (human glucagon receptor) [nM] | cAMP Emax (1.0% HSA) (human GIP receptor) [%]
1 | Y[Aib]EGT[αMePhe(2-F)]TSDV[Aib]I[αMeL]LD[Orn]K([AEEA-AEEA-γGlu-C14 diacid])AQ[Aib][Orn]FI[dE][αMeY]LIK([AEEA-AEEA-γGlu-C14 diacid])GGPSSGAPPPS-NH2 [Example 350] | 0.202 | 95.9 | 0.0288 | 101 | > 9950 | 5.82 | 6.4 | 91.4 | > 9950 | –
2 | Y[Aib]EGT[αMePhe(2-F)]TSDV[Aib]I[αMeL]LD[Orn]IAQ[Aib]K([AEEA-AEEA-γGlu-Decanoyl(10-(4-HOOC-PhO))])FI[dE][αMeY]LIK([AEEA-AEEA-γGlu-Decanoyl(10-(4-HOOC-PhO))])GGPSSGAPPPS-NH2 [Example 330] | 0.477 | 103 | 0.0185 | 112 | > 9950 | 6.26 | 85.2 | 85 | > 9950 | 103
3 | Y[Aib]EGT[αMePhe(2-F)]TSDV[Aib]I[αMeL]LD[Orn]K([AEEA-AEEA-γGlu-C14 diacid])AQ[Aib]EFI[dE][αMeY]LIK([AEEA-AEEA-γGlu-C14 diacid])GGPSSGAPPPS-NH2 (N-terminus assumed; SMILES CC[C@H](C)[C@H](NC(=O)[C@H](CC(C)C)NC(=O)[C@](C)(Cc1ccc(O)cc1)NC(=O)[C@@H](CCC(=O)O)NC(=O)[C@@H](NC(=O)[C@H](Cc1ccccc1)NC(=O)[C@H](CCC(=O)O)NC(=O)C(C)(C)NC(=O)[C@H](CCC(N)=O)NC(=O)[C@H](C)NC(=O)[C@H](CCCCNC(=O)COCCOCCNC(=O)COCCOCCNC(=O)CC[C@H](NC(=O)CCCCCCCCCCCCC(=O)O)C(=O)O)NC(=O)[C@H](CCCN)NC(=O)[C@H](CC(=O)O)NC(=O)[C@H](CC(C)C)NC(=O)[C@](C)(CC(C)C)NC(=O)[C@@H](NC(=O)C(C)(C)NC(=O)[C@@H](NC(=O)[C@H](CC(=O)O)NC(=O)[C@H](CO)NC(=O)[C@@H](NC(=O)[C@](C)(Cc1ccccc1F)NC(=O)[C@@H](NC(=O)CNC(=O)[C@H](CCC(=O)O)NC(=O)C(C)(C)NC(=O)[C@@H](N)Cc1ccc(O)cc1)[C@@H](C)O)[C@@H](C)O)C(C)C)[C@@H](C)CC)[C@@H](C)CC)C(=O)N[C@@H](CCCCNC(=O)COCCOCCNC(=O)COCCOCCNC(=O)CC[C@H](NC(=O)CCCCCCCCCCCCC(=O)O)C(=O)O)C(=O)NCC(=O)NCC(=O)N1CCC[C@H]1C(=O)N[C@@H](CO)C(=O)N[C@@H](CO)C(=O)NCC(=O)N[C@@H](C)C(=O)N1CCC[C@H]1C(=O)N1CCC[C@H]1C(=O)N1CCC[C@H]1C(=O)N[C@@H](CO)C(N)=O) [Example 325] | 0.225 | 97.8 | 0.0485 | 104 | > 9950 | 3.96 | 23.5 | 98.4 | > 9950 | 94.7
4 | YXEGTXTSDXXIXLDXKAQXEFIXXLIEGGPSSGAPPPSK (Y-Aib-EGT-αMeF(2F)-TSD-4Pal-Aib-I-αMeL-LD-Orn-K((2-[2-(2-Amino-ethoxy)-ethoxy]-acetyl)2-(γ-Glu)-CO-(CH2)10-CH3)AQ-Aib-EFI-(D-Glu)-αMeY-LIEGGPSSGAPPPSK((2-[2-(2-Amino-ethoxy)-ethoxy]-acetyl)2-(γ-Glu)-CO-(CH2)10-CH3)-NH2) [Example 324] | 0.0647 | 97.6 | 0.00632 | 101 | > 9950 | 0.321 | 4.38 | 99.4 | > 9950 | –
5 | YXEGTXTSDXXIXLDXIAQXKFIXXLIEGGPSSGAPPPSK (Y-Aib-EGT-αMeF(2F)-TSD-4Pal-Aib-I-αMeL-LD-Orn-IAQ-Aib-K((2-[2-(2-Amino-ethoxy)-ethoxy]-acetyl)-(γ-Glu)-CO-(CH2)12-CO2H)FI-(D-Glu)-αMeY-LIEGGPSSGAPPPSK((2-[2-(2-Amino-ethoxy)-ethoxy]-acetyl)-(γ-Glu)-CO-(CH2)12-CO2H)-NH2) [Example 341] | 0.329 | 99.9 | 0.0127 | 91.4 | > 9950 | 5.74 | 95.8 | 113 | > 9950 | 83.6
6 | Y[Aib]EGT[αMePhe(2-F)]TSDV[Aib]I[αMeL]LD[Orn]IAQ[Aib]K([AEEA-AEEA-γGlu-C14 diacid])FI[dE][αMeY]LIK([AEEA-AEEA-γGlu-C14 diacid])GGPSSGAPPPS-NH2 (N-terminus assumed; SMILES CC[C@H](C)[C@H](NC(=O)[C@H](CCCN)NC(=O)[C@H](CC(=O)O)NC(=O)[C@H](CC(C)C)NC(=O)[C@](C)(CC(C)C)NC(=O)[C@@H](NC(=O)C(C)(C)NC(=O)[C@@H](NC(=O)[C@H](CC(=O)O)NC(=O)[C@H](CO)NC(=O)[C@@H](NC(=O)[C@](C)(Cc1ccccc1F)NC(=O)[C@@H](NC(=O)CNC(=O)[C@H](CCC(=O)O)NC(=O)C(C)(C)NC(=O)[C@@H](N)Cc1ccc(O)cc1)[C@@H](C)O)[C@@H](C)O)C(C)C)[C@@H](C)CC)C(=O)N[C@@H](C)C(=O)N[C@@H](CCC(N)=O)C(=O)NC(C)(C)C(=O)N[C@@H](CCCCNC(=O)COCCOCCNC(=O)COCCOCCNC(=O)CC[C@H](NC(=O)CCCCCCCCCCCCC(=O)O)C(=O)O)C(=O)N[C@@H](Cc1ccccc1)C(=O)N[C@H](C(=O)N[C@H](CCC(=O)O)C(=O)N[C@@](C)(Cc1ccc(O)cc1)C(=O)N[C@@H](CC(C)C)C(=O)N[C@H](C(=O)N[C@@H](CCCCNC(=O)COCCOCCNC(=O)COCCOCCNC(=O)CC[C@H](NC(=O)CCCCCCCCCCCCC(=O)O)C(=O)O)C(=O)NCC(=O)NCC(=O)N1CCC[C@H]1C(=O)N[C@@H](CO)C(=O)N[C@@H](CO)C(=O)NCC(=O)N[C@@H](C)C(=O)N1CCC[C@H]1C(=O)N1CCC[C@H]1C(=O)N1CCC[C@H]1C(=O)N[C@@H](CO)C(N)=O)[C@@H](C)CC)[C@@H](C)CC) [Example 329] | 0.353 | 104 | 0.015 | 109 | > 9950 | 5.44 | 74.7 | 88.3 | > 9950 | 100
7 | Y[Aib]EGT[αMePhe(2-F)]TSDV[Aib]I[αMeL]LD[Orn]K([AEEA-AEEA-γGlu-Decanoyl(10-(4-HOOC-PhO))])AQ[Aib]EFI[dE][αMeY]LIK([AEEA-AEEA-γGlu-Decanoyl(10-(4-HOOC-PhO))])GGPSSGAPPPS-NH2 [Example 326] | 0.186 | 94.4 | 0.0338 | 102 | > 9950 | 4.62 | 26.1 | 96.1 | > 9950 | 88.7
8 | YXEGTXTSDXXIXLDXKAQXKFIXXLIEGGPSSGAPPPS (Y-Aib-EGT-αMeF(2F)-TSD-4Pal-Aib-I-αMeL-LD-Orn-K((2-[2-(2-Amino-ethoxy)-ethoxy]-acetyl)2-(γ-Glu)-CO-(CH2)10-CH3)AQ-Aib-K((2-[2-(2-Amino-ethoxy)-ethoxy]-acetyl)2-(γ-Glu)-CO-(CH2)10-CH3)FI-(D-Glu)-αMeY-LIEGGPSSGAPPPS-NH2) [Example 322] | 0.144 | 100 | 0.00937 | 101 | > 9950 | 0.617 | 8.09 | 94.5 | > 9950 | –
9 | YXEGTXTSDXXIXLDXKAQXEFIXXLIKGGPSSGAPPPS (Y-Aib-EGT-αMeF(2F)-TSD-4Pal-Aib-I-αMeL-LD-Orn-K((2-[2-(2-Amino-ethoxy)-ethoxy]-acetyl)-(γ-Glu)-CO-(CH2)12-CO2H)AQ-Aib-EFI-(D-Glu)-αMeY-LIK((2-[2-(2-Amino-ethoxy)-ethoxy]-acetyl)-(γ-Glu)-CO-(CH2)12-CO2H)GGPSSGAPPPS-NH2) [Example 337] | 0.444 | 107 | 0.0151 | 103 | > 10100 | 2.65 | 53.6 | – | > 10100 | –
10 | YXEGTXTSDXXIXLDXIAQXKFIXXLIKGGPSSGAPPPS (Y-Aib-EGT-αMeF(2F)-TSD-4Pal-Aib-I-αMeL-LD-Orn-IAQ-Aib-K((2-[2-(2-Amino-ethoxy)-ethoxy]-acetyl)-(γ-Glu)-CO-(CH2)12-CO2H)FI-(D-Glu)-αMeY-LIK((2-[2-(2-Amino-ethoxy)-ethoxy]-acetyl)-(γ-Glu)-CO-(CH2)12-CO2H)GGPSSGAPPPS-NH2) [Example 340] | 0.409 | 105 | 0.0206 | 95.2 | > 9950 | 9.91 | 122 | 112 | > 9950 | 87.9
11 | YXEGTXTSDXXIXLDXKAQXXFIXXLIKGGPSSGAPPPS (Y-Aib-EGT-αMeF(2F)-TSD-4Pal-Aib-I-αMeL-LD-Orn-K((2-[2-(2-Amino-ethoxy)-ethoxy]-acetyl)2-(α-Glu)-(10-(4-carboxyphenoxy)decanoyl))AQ-Aib-Om-FI-(D-Glu)-αMeY-LIK((2-[2-(2-Amino-ethoxy)-ethoxy]-acetyl)2-(γ-Glu)-(10-(4-carboxyphenoxy)decanoyl))GGPSSGAPPPS-NH2) [Example 351] | 0.397 | 100 | 0.0185 | 102 | > 9950 | 0.722 | 5.8 | 91 | > 9950 | 67.9
12 | YXEGTXTSDXXIXLDXKAQXKFIXXLIEGGPSSGAPPPS (Y-Aib-EGT-αMeF(2F)-TSD-4Pal-Aib-I-αMeL-LD-Orn-K((2-[2-(2-Amino-ethoxy)-ethoxy]-acetyl)-(γ-Glu)-CO-(CH2)12-CO2H)AQ-Aib-K((2-[2-(2-Amino-ethoxy)-ethoxy]-acetyl)-(γ-Glu)-CO-(CH2)12-CO2H)FI-(D-Glu)-αMeY-LIEGGPSSGAPPPS-NH2) [Example 336] | 0.338 | 107 | 0.0136 | 109 | > 10100 | 2.92 | 47 | 103 | > 10100 | –
13 | YXEGTXTSDXXIXLDXIAQXKFIXXLIKGGPSSGAPPPS (Y-Aib-EGT-αMeF(2F)-TSD-4Pal-Aib-I-αMeL-LD-Orn-IAQ-Aib-K(2-[2-(2-Amino-ethoxy)-ethoxy]-acetyl)2-(γ-Glu)-(11-(4-carboxyphenoxy)undecanoyl)FI-(D-Glu)-αMeY-LIK((2-[2-(2-Amino-ethoxy)-ethoxy]-acetyl)2-(γ-Glu)-(11-(4-carboxyphenoxy)undecanoyl)GGPSSGAPPPS-NH2)) [Example 331] | 0.436 | 99.6 | 0.0113 | 101 | > 9950 | 8.31 | 223 | 114 | > 9950 | –
